In IntAct's records for PubMed 20723757:

B1: Monopolin complex subunit CSM1 (Saccharomyces cerevisiae), P25651 (parent)
chain: MDPLTVYKNSVKQQIDSADLLVANLVNENFVLSEKLDTKATEIKQLQKQIDSLNAQVKELKTQTSQQAENSEVIKDLYEYLCNVRVHKSYEDDSGLWFDISQGTHSGGSSDDYSIMDYKLGFVKGQAQVTEVIYAPVLKQRSTEELYSLQSKLPEYLFETLSFPLSSLNQFYNKIAKSLNKKREKKDETE
partner: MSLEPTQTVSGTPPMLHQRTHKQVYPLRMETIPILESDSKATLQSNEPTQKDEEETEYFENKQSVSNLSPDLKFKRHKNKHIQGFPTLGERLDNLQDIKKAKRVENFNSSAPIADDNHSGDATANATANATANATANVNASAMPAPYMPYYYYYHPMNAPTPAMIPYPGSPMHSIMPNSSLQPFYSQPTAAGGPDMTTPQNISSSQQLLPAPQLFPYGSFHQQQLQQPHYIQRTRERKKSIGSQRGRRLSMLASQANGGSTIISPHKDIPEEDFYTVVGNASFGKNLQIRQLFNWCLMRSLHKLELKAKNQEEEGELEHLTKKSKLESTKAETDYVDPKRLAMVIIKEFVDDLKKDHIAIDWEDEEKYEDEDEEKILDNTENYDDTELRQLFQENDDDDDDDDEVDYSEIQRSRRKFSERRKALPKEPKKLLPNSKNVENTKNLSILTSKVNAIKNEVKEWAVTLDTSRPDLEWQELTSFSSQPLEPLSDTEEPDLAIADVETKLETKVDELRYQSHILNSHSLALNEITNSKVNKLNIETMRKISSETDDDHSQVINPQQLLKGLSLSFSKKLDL
B2: Monopolin complex subunit CSM1 (Saccharomyces cerevisiae), P25651 (parent)
chain: B1 chain
B3: Monopolin complex subunit pcs1 (Schizosaccharomyces pombe (strain ATCC 38366 / 972)), O13684 (parent)
chain: MRKNNMQTSKDSELKEQAKGKSSKLIHKLPKQRTRISQGQMHSTQDFVNNEDQDAYSVRENENELHINNSGMSELNKKLQLPNVELSTLSHTQEQEFNELNKLIRKINELQEFYLLEDLAKPVTNAGADADDTIVKDLKKELENEKKANHSLKNELLKTREQIKNYSKINILIKELFGLEVADCIEDEDGYRFNCKNTGRRGTLEYQLLLDDQNFTFTPRLNVQTDEELMKHLPDYLLEEIIFTKEQGKLFSARLMKALQD
partner: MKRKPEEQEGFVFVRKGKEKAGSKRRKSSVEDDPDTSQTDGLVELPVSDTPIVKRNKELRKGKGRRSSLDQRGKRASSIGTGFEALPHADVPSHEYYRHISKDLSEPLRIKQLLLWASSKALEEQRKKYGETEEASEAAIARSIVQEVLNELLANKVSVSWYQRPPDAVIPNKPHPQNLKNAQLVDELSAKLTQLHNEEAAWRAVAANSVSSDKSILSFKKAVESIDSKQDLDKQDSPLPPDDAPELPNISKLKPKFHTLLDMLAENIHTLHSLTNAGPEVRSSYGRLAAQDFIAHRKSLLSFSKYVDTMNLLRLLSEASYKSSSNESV

Variants of: B1
Conditions: with dsn1_yeast DSN1, P40568

Row | effect of a mutation on the interaction | Variant
1 | decreasing interaction | MDPLTVYKNSVKQQIDSADLLVANLVNENFVLSEKLDTKATEIKQLQKQIDSLNAQVKELKTQTSQQAENSEVIKDLYEYLCNVRVHKSYEDDSGLWFDISQGTHSGGSSDDYSIMDYKLGFVKGQAQVTEVIYAPVLKQRSTEELYSLQSKLPEYLFETKSFPLSSLNQFYNKIAKSLNKKREKKDETE [L161K]
2 | decreasing interaction | MDPLTVYKNSVKQQIDSADLLVANLVNENFVLSEKLDTKATEIKQLQKQIDSLNAQVKELKTQTSQQAENSEVIKDLYEYLCNVRVHKSYEDDSGLWFDISQGTHSGGSSDDYSIMDYKLGFVKGQAQVTEVIYAPVLKQRSTEELYSLQSKLPEYLFETDSFPLSSLNQFYNKIAKSLNKKREKKDETE [L161D]
3 | decreasing interaction | MDPLTVYKNSVKQQIDSADLLVANLVNENFVLSEKLDTKATEIKQLQKQIDSLNAQVKELKTQTSQQAENSEVIKDLYEYLCNVRVHKSYEDDSGLWFDISQGTHSGGSSDDYSIMDYKLGFVKGQAQVTEVIYAPVLKQRSTEELYSLQSKLPEELFETLSFPLSSLNQFYNKIAKSLNKKREKKDETE [Y156E]

Variants of: B2
Conditions: with cenpc_yeast MIF2, P35201
Chain of cenpc_yeast MIF2, P35201 (P35201 whole entry): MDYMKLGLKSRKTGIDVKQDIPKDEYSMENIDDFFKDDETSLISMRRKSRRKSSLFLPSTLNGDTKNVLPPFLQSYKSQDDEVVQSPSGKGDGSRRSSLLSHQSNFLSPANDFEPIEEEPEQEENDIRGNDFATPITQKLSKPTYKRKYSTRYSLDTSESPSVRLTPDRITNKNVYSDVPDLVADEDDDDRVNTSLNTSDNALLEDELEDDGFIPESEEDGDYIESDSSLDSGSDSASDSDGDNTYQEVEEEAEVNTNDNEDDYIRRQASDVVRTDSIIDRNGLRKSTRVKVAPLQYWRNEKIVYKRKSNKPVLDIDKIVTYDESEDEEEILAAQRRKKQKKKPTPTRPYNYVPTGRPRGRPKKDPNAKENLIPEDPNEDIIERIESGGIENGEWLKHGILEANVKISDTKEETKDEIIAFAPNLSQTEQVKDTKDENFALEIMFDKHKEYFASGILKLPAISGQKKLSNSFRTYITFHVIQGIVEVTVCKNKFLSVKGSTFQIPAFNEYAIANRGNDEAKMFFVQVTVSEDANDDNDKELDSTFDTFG

Row | effect of a mutation on the interaction | Variant
4 | decreasing interaction | MDPLTVYKNSVKQQIDSADLLVANLVNENFVLSEKLDTKATEIKQLQKQIDSLNAQVKELKTQTSQQAENSEVIKDLYEYLCNVRVHKSYEDDSGLWFDISQGTHSGGSSDDYSIMDYKLGFVKGQAQVTEVIYAPVLKQRSTEELYSLQSKLPEYLFETKSFPLSSLNQFYNKIAKSLNKKREKKDETE [L161K]
5 | decreasing interaction | MDPLTVYKNSVKQQIDSADLLVANLVNENFVLSEKLDTKATEIKQLQKQIDSLNAQVKELKTQTSQQAENSEVIKDLYEYLCNVRVHKSYEDDSGLWFDISQGTHSGGSSDDYSIMDYKLGFVKGQAQVTEVIYAPVLKQRSTEELYSLQSKLPEYLFETDSFPLSSLNQFYNKIAKSLNKKREKKDETE [L161D]
6 | decreasing interaction | MDPLTVYKNSVKQQIDSADLLVANLVNENFVLSEKLDTKATEIKQLQKQIDSLNAQVKELKTQTSQQAENSEVIKDLYEYLCNVRVHKSYEDDSGLWFDISQGTHSGGSSDDYSIMDYKLGFVKGQAQVTEVIYAPVLKQRSTEELYSLQSKLPEELFETLSFPLSSLNQFYNKIAKSLNKKREKKDETE [Y156E]

Variants of: B3
Conditions: with mis13_schpo mis13, Q9UUB5

Row | effect of a mutation on the interaction | Variant
7 | decreasing interaction | MRKNNMQTSKDSELKEQAKGKSSKLIHKLPKQRTRISQGQMHSTQDFVNNEDQDAYSVRENENELHINNSGMSELNKKLQLPNVELSTLSHTQEQEFNELNKLIRKINELQEFYLLEDLAKPVTNAGADADDTIVKDLKKELENEKKANHSLKNELLKTREQIKNYSKINILIKELFGLEVADCIEDEDGYRFNCKNTGRRGTLEYQLLLDDQNFTFTPRLNVQTDEELMKHLPDYLLEEKIFTKEQGKLFSARLMKALQD [I241K]
8 | decreasing interaction | MRKNNMQTSKDSELKEQAKGKSSKLIHKLPKQRTRISQGQMHSTQDFVNNEDQDAYSVRENENELHINNSGMSELNKKLQLPNVELSTLSHTQEQEFNELNKLIRKINELQEFYLLEDLAKPVTNAGADADDTIVKDLKKELENEKKANHSLKNELLKTREQIKNYSKINILIKELFGLEVADCIEDEDGYRFNCKNTGRRGTLEYQLLLDDQNFTFTPRLNVQTDEELMKHLPDYLLEEDIFTKEQGKLFSARLMKALQD [I241D]
9 | decreasing interaction | MRKNNMQTSKDSELKEQAKGKSSKLIHKLPKQRTRISQGQMHSTQDFVNNEDQDAYSVRENENELHINNSGMSELNKKLQLPNVELSTLSHTQEQEFNELNKLIRKINELQEFYLLEDLAKPVTNAGADADDTIVKDLKKELENEKKANHSLKNELLKTREQIKNYSKINILIKELFGLEVADCIEDEDGYRFNCKNTGRRGTLEYQLLLDDQNFTFTPRLNVQTDEELMKHLPDYLLEEAIFTKEQGKLFSARLMKALQD [I241A]
10 | decreasing interaction | MRKNNMQTSKDSELKEQAKGKSSKLIHKLPKQRTRISQGQMHSTQDFVNNEDQDAYSVRENENELHINNSGMSELNKKLQLPNVELSTLSHTQEQEFNELNKLIRKINELQEFYLLEDLAKPVTNAGADADDTIVKDLKKELENEKKANHSLKNELLKTREQIKNYSKINILIKELFGLEVADCIEDEDGYRFNCKNTGRRGTLEYQLLLDDQNFTFTPRLNVQTDEELMKHLPDALLEEIIFTKEQGKLFSARLMKALQD [Y236A]
11 | decreasing interaction | MRKNNMQTSKDSELKEQAKGKSSKLIHKLPKQRTRISQGQMHSTQDFVNNEDQDAYSVRENENELHINNSGMSELNKKLQLPNVELSTLSHTQEQEFNELNKLIRKINELQEFYLLEDLAKPVTNAGADADDTIVKDLKKELENEKKANHSLKNELLKTREQIKNYSKINILIKELFGLEVADCIEDEDGYRFNCKNTGRRGTLEYQLLLDDQNFTFTPRLNVQTDEELMKHLPDKLLEEIIFTKEQGKLFSARLMKALQD [Y236K]
12 | decreasing interaction | MRKNNMQTSKDSELKEQAKGKSSKLIHKLPKQRTRISQGQMHSTQDFVNNEDQDAYSVRENENELHINNSGMSELNKKLQLPNVELSTLSHTQEQEFNELNKLIRKINELQEFYLLEDLAKPVTNAGADADDTIVKDLKKELENEKKANHSLKNELLKTREQIKNYSKINILIKELFGLEVADCIEDEDGYRFNCKNTGRRGTLEYQLLLDDQNFTFTPRLNVQTDEELMKHLPDELLEEIIFTKEQGKLFSARLMKALQD [Y236E]
